Measurements published in the supplement of paper PMC9112550, “Optimization of the antimicrobial peptide Bac7 by deep mutational scanning” (BMC Biology, 2022).

Tested on: Escherichia coli TOP10
Experiment: shrunken log2 fold change of peptide-encoding DNA abundance (4.5 h post-induction vs induction); higher = less antimicrobial activity (less host growth inhibition)
Conditions: time post-induction: 4.5 h; library: site-saturation at positions 5, 18, 19, 20
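Note: peptides expressed intracellularly from a pBAD plasmid library in pooled LB shake-flask culture, induced with 0.3% L-arabinose, DNA abundance read by NGS, three biological replicates, DESeq2 with apeglm shrinkage.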

Sequence | shrunken log2 fold change
RRIRCRPPRLPRPRPRPHRMPRP | -0.401
RRIRDRPPRLPRPRPRPVCAPRP | 1.12
RRIRSRPPRLPRPRPRPRKGPRP | 0.208
RRIRPRPPRLPRPRPRPAATPRP | 0.809
RRIRMRPPRLPRPRPRPLPFPRP | -0.117
RRIRARPPRLPRPRPRPVQKPRP | 0.198
RRIRQRPPRLPRPRPRPLRQPRP | 0.0855
RRIRQRPPRLPRPRPRPNNMPRP | -0.378
RRIRSRPPRLPRPRPRPWDVPRP | 0.166
RRIRVRPPRLPRPRPRPEKDPRP | 0.188
RRIRNRPPRLPRPRPRPVGLPRP | 0.0874
RRIRDRPPRLPRPRPRPRKMPRP | 0.154
RRIRSRPPRLPRPRPRPIVYPRP | -0.255
RRIRSRPPRLPRPRPRPIWVPRP | 0.0576
RRIRPRPPRLPRPRPRPLEGPRP | 0.179
RRIRVRPPRLPRPRPRPQYQPRP | -0.302
RRIRIRPPRLPRPRPRPLEYPRP | -0.293
RRIRWRPPRLPRPRPRPYIRPRP | -0.359
RRIRLRPPRLPRPRPRPDQGPRP | -0.034
RRIRKRPPRLPRPRPRPHMTPRP | 0.0202
RRIRDRPPRLPRPRPRPIMIPRP | -0.408
RRIRERPPRLPRPRPRPHTQPRP | -0.362
RRIRVRPPRLPRPRPRPDIQPRP | 1.23
RRIRSRPPRLPRPRPRPKLGPRP | 0.281
RRIRQRPPRLPRPRPRPHLLPRP | 0.006

Sequence | shrunken log2 fold change
RRIRPRPPRLPRPRPRPTYKPRP | -0.455
RRIRWRPPRLPRPRPRPNPKPRP | 0.0369
RRIRNRPPRLPRPRPRPWDDPRP | 0.0288
RRIRNRPPRLPRPRPRPRKPPRP | -0.0565
RRIRCRPPRLPRPRPRPDRPPRP | 0.19
RRIRCRPPRLPRPRPRPQDCPRP | -0.241
RRIRVRPPRLPRPRPRPLAFPRP | -0.221
RRIRERPPRLPRPRPRPLYDPRP | -1.62
RRIRTRPPRLPRPRPRPTQAPRP | 0.111
RRIRRRPPRLPRPRPRPNATPRP | 0.703
RRIRIRPPRLPRPRPRPHGEPRP | -0.178
RRIRGRPPRLPRPRPRPVMHPRP | 0.575
RRIRARPPRLPRPRPRPSKNPRP | 0.235
RRIRQRPPRLPRPRPRPYPNPRP | -0.0164
RRIRFRPPRLPRPRPRPDQWPRP | -0.125
RRIRHRPPRLPRPRPRPLQEPRP | -0.331
RRIRPRPPRLPRPRPRPVLWPRP | 0.374
RRIRERPPRLPRPRPRPAKRPRP | 0.0249
RRIRNRPPRLPRPRPRPMPFPRP | 0.00489
RRIRCRPPRLPRPRPRPYWWPRP | -0.441
RRIRYRPPRLPRPRPRPLCNPRP | -0.0925
RRIRTRPPRLPRPRPRPTCDPRP | 0.0699
RRIRARPPRLPRPRPRPLNKPRP | 0.028
RRIRVRPPRLPRPRPRPMTEPRP | 0.0198
RRIRQRPPRLPRPRPRPLQTPRP | -0.339

Sequence | shrunken log2 fold change
RRIRARPPRLPRPRPRPDERPRP | 0.423
RRIRDRPPRLPRPRPRPLIKPRP | 0.153
RRIRSRPPRLPRPRPRPNYNPRP | -0.904
RRIRRRPPRLPRPRPRPCRKPRP | -0.444
RRIRCRPPRLPRPRPRPGPTPRP | 0.848
RRIRSRPPRLPRPRPRPYDNPRP | -0.0962
RRIRARPPRLPRPRPRPCHIPRP | 0.00153
RRIRRRPPRLPRPRPRPLLPPRP | 0.574
RRIRERPPRLPRPRPRPDAIPRP | -0.166
RRIRLRPPRLPRPRPRPDNGPRP | -0.0567
RRIRGRPPRLPRPRPRPEKVPRP | 0.417
RRIRHRPPRLPRPRPRPGSEPRP | 0.176
RRIRERPPRLPRPRPRPRICPRP | -0.111
RRIRYRPPRLPRPRPRPYMRPRP | -1.01
RRIRARPPRLPRPRPRPYHEPRP | -0.167
RRIRGRPPRLPRPRPRPQRIPRP | 0.178
RRIRFRPPRLPRPRPRPKWDPRP | 0.117
RRIRGRPPRLPRPRPRPETGPRP | 0.81
RRIRKRPPRLPRPRPRPFYEPRP | 0.0368
RRIRRRPPRLPRPRPRPWCTPRP | -0.0123
RRIRWRPPRLPRPRPRPVLGPRP | 0.241
RRIRCRPPRLPRPRPRPSLYPRP | -0.518
RRIRTRPPRLPRPRPRPRDQPRP | 0.224
RRIRKRPPRLPRPRPRPPQHPRP | 0.5
RRIRGRPPRLPRPRPRPHDLPRP | -0.00843
